From patent US20090155873A1, “BIOFUEL PRODUCTION” (BIO ARCHITECTURE LAB, INC., priority 2007, published 2009)

B1: ADH1: alcohol dehydrogenase ADH1 Atu1557 isolated from Agrobacterium tumefaciens C58, SEQ ID NO:70 (protein)
chain: MFTTSAYACDDGSSPMKLATIRRRDPGPRDVEIEIEFCGVCHSDIHTARSEWPGSLYPCVPGHEIVGRVGRVGAQVTRFKTGDRVGVGCIVDSCRECASCAEGLEQYCENGMTGTYNSPDKAMGGGAHTLGGYSAHVVVDDRYVLNIPEGLDPAAAAPLLCAGITTYSPLRHWNAGPGKRVGVVGLGGLGHMAVKLANAMGATVVMITTSPGKAEDAKKLGAHEVIISRDAEQMKKATSSLDLIIDAVAADHDIDAYLALLKRDGALVQVGAPEKPLSVMAFSLIPGRKTFAGSMIGGIPETQEMLDFCAEKGIAGEIEMIDIDQINDAYERMIKSDVRYRFVIDMKSLPRQKAA
modifications: Agrobacterium tumefaciens C58
B2: ADH3: alcohol dehydrogenase ADH3 Atu0626 isolated from Agrobacterium tumefaciens C58, SEQ ID NO:74 (protein)
chain: MTKTMKAAVVRAFGKPLTIEEVAIPDPGPGEILINYKATGVCHTDLHAATGDWPVKPNPPFIPGHEGAGYVAKIGAGVTGIKEGDRAGTPWLYTACGCCIPCRTGWETLCPSQKNSGYSVNGSFAEYGLADPKFVGRLPDNLDFGPAAPVLCAGVTVYKGLKETEVRPGEWVVISGIGGLGHMAVQYAKAMGMHVVAADIFDDKLALAKKLGADVVVNGRAPDAVEQVQKATGGVHGALVTAVSPKAMEQAYGFLRSKGTMALVGLPPGFISIPVFDTVLKRITVRGSIVGTRQDLEEALTFAGEGKVAAHFSWDKLENINDIFHRMEEGKIDGRIVVDLAA
modifications: Agrobacterium tumefaciens C58
B3: ADH9: alcohol dehydrogenase ADH9 Atu4087 isolated from Agrobacterium tumefaciens C58, SEQ ID NO:86 (protein)
chain: MKAIVAHGAKDVRIEDRPEEKPGPGEVRLRLARGGICGSDLHYYNHGGFGAVRLREPMVLGHEVSAVIEELGEGVEGLKIGGLVAVSPSRPCRTCRFCQEGLHNQCLNMRFYGSAMPFPHIQGAFREILVADALQCVPADGLSAGEAAMAEPLAVTLHATRRAGDLLGKRVLVTGCGPIGILSILAARRAGAAEIVATDLSDFTLGKAREAGADRVINSKDEPDALAAYGANKGTFDILYECSGAAVALAGGITALRPRGIIVQLGLGGDMSLPMMAITAKELDLRGSFRFHEEFATGVELMRKGLIDVKPFITQTVDLADAISAFEFASDRSRAMKVQIAFS
modifications: Agrobacterium tumefaciens C58
B4: 2ADH-10: secondary alcohol dehydrogenase isolated from Pseudomonas putida KT2440, SEQ ID NO:128 (protein)
chain: MSKTHLFDLDGKIAFVSGASRGIGEAIAHLLAQQGAHVIVSSRKLDGCQQVADAIIAAGGKATAVACHIGELEQIQQVFAGIREQFGRLDVLVNNAATNPQFCNVLDTDPGAFQKTVDVNIRGYFFMSVEAGKLMRENGGGSIINVASINGVSPGLFQGIYSVTKAAVINMTKVFAKECAPFGIRCNALLPGLTDTKFASALVKNEAILNAALQQIPLKRVADPKEMAGAVLYLASDASSYTTGTTLNVDGGFLS
modifications: Pseudomonas putida KT2440
B5: 2ADH-5: secondary alcohol dehydrogenase isolated from Pseudomonas putida KT2440, SEQ ID NO:118 (protein)
chain: MSKQLTLEGKVALVQGGSRGIGAAIVRRLAREGAQVAFTYVSSAGPAEELAREITENGGKALALRADSADAAAVQLAVDDTEKALGRLDILVNNAGVLAVAPVTEFDLADFDHMLAVNVRSVFVASQAAARYMGQGGRIINIGSTNAERMPFAGGAPYAMSKSALVGLTRGMARDLGPQGITVNNVQPGPVDTDMNPASGEFAESLIPLMAIGRYGEPEEIASFVAYLAGPEAGYITGASLTVDGGFAA
modifications: Pseudomonas putida KT2440
B6: ADH2: alcohol dehydrogenase ADH2 Atu2022 isolated from Agrobacterium tumefaciens C58, SEQ ID NO:72 (protein)
chain: MAIARGYAATDASKPLTPFTFERREPNDDDVVIDIKYAGICHSDIHTVRNEWHNAVYPIVPGHEIAGVVRAVGSKVTRFKVGDHVGVGCFVDSCVGCATRDVDNEQYMPGLVQTYNSVERDGKSATQGGYSDHIVVREDYVLSIPDNLPLDASAPLLCAGITLYSPLQHWNAGPGKKVAIVGMGGLGHMGVKIGSAMGADITVLSQTLSKKEDGLKLGAKEYYATSDASTFEKLAGTFDLILCTVSAEIDWNAYLNLLKVNGTMVLLGVPEHAIPVHAFSVIPARRSLAGSMIGSIKETQEMLDFCGKHDIVSEIETIGIKDVNEAYERVLKSDVRYRFVIDMASLDA
modifications: Agrobacterium tumefaciens C58
B7: Atu3027 (ADH11): alcohol dehydrogenase ADH11 Atu3027 isolated from Agrobacterium tumefaciens C58, SEQ ID NO:90 (protein)
chain: MRSELPEGFFGPREWARLNAVADIIPGFPHTDFDTANGAEALAEADILLAAWGTPSLTRERLSRAPRLKMLAYAASSVRMVAPAEFWETSDILVTTAASAMAVPVAEFTYAAIIMCGKDVFRLRDEHRTERGTGVFGSRRGRSLPYLGNHARKVGIVGASRIGRLVMEMLARGTFEIAVYDPFLSAEEAASLGAKKAELDELLAWSDVVSLHAPILPETHHMIGARELALMADHAIFINTARGWLVDHDALLTEAISGRLRILIDTPEPEPLPTDSPFYDLPNVVLTPHIAGALGNELRALSDLAITEIERFVAGLAPLHPVHKQDMERMA
modifications: Agrobacterium tumefaciens C58
B8: 2ADH-8: secondary alcohol dehydrogenase isolated from Pseudomonas putida KT2440, SEQ ID NO:124 (protein)
chain: MSLQGKVALVTGASRGIGQAIALELGRQGATVIGTATSASGAERIAATLKEHGITGTGMELNVTSAESVEAVLAAIGEQFGAPAILVNNAGITRDNLMLRMKDDEWFDVIDTNLNSLYRLSKGVLRGMTKARWGRIISIGSVVGAMGNAGQANYAAAKAGLEGFSRALAREVGSRGITVNSVTPGFIDTDMTRELPEAQREALQTQIPLGRLGQADEIAKVVSFLASDGAAYVTGATVPVNGGMYM
modifications: Pseudomonas putida KT2440
B9: Atu3026 (ADH12): alcohol dehydrogenase ADH12 Atu3026 isolated from Agrobacterium tumefaciens C58, SEQ ID NO:92 (protein)
chain: MQRFTNRTIVVAGAGRDIGRACAIRFAQEGANVVLTYNGAAEGAATAVAEIEKLGRSALAIKADLTNAAEVEAAISAAADKFGEIHGLVHVAGGLIARKTIAEMDEAFWHQVLDVNLTSLFLTAKTALPKMAKGGAIVTFSSQAGRDGGGPGALAYATSKGAVMTFTRGLAKEVGPKIRVNAVCPGMISTTFHDTFTKPEVRERVAGATSLKREGSSEDVAGLVAFLASDDAAYVTGACYDINGGVLFS
modifications: Agrobacterium tumefaciens C58
B10: ADH4: alcohol dehydrogenase ADH4 Atu5240 isolated from Agrobacterium tumefaciens C58, SEQ ID NO:76 (protein)
chain: MTGANQPWEVQEVPVPKAEPGLVLVKIHASGMCYTDVWATQGAGGDIYPQTPGHEVVGEIIEVGAGVHTRKVGDRVGTTWVQSSCGRCSYCRQNRPLTGQTAMNCDSPRTTGFATQGGHAEYIAISAEGTVLLPDGLDYTDAAPMMCAGYTTWSGLRDAEPKPGDRIAVLGIGGLGHVAVQFSKALGFETIAITHSPDKHKLATDLGADIVVADGKELLEAGGADVLLVTTNDFDTAEKAMAGVRPDGRIVLCALDFSKPFSIPSDGKPFHMMRQRVVGSTHGGQHYLAEILDLAAKGKVKPIVETFALEQATEAYERLSTGKMRFRGVFLPHGA
modifications: Agrobacterium tumefaciens C58

What was measured:
Type in all cases: biochemical
[1] = Assay for DEHU hydrogenase (NADPH dependent DEHU hydrogenation); conditions: cell lysate, absorbance at 340 nm for 30 min, FIG. 7A
Description: (§1) To identify DEHU hydrogenase, a NADPH dependent DEHU hydrogenation assay was performed. 20 μl of prepared cell lysate containing each ADH was added to 160 μl of 20-fold deluted DEHU solution prepared in the above section. 20 μl of 2.5 mg/ml of NADPH solution (20 mM Tris-HCl, pH 8.0) was added to initiate the hydrogenation reaction, as a preliminary study using cell lysate of A. tumefaciens C58 have shown that DEHU hydrogenation requires NADPH as a co-factor. The consumption of NADPH was monitored an absorbance at 340 nm for 30 min using the kinetic mode of ThermoMAX 96 well plate reader (Molecular Devises). E. coli cell lysate containing alcohol dehydrogenase (ADH) 10 lacking a portion of N-terminal domain was used in a control reaction mixture.

[2] = Assay for D-mannuronate hydrogenase (NADPH dependent hydrogenation); conditions: cell lysate, absorbance at 340 nm for 30 min, FIG. 7B
Description: as §1, with “D-mannuronate” for “DEHU”, “D-mannuronate” for “20-fold deluted DEHU”, “reaction.” for “reaction, as a preliminary study using cell lysate of A. tumefaciens C58 have shown that DEHU hydrogenation requires NADPH as a co-factor.”

[3] = NADPH Production Assay (oxidation of 4-octanol); conditions: NADP+, 30° C., FIG. 30B
Description: Various secondary alcohol dehydrogenases (2ADHs) were isolated from Pseudomonas putida KT2440, Pseudomonas fluorescens Pf-5, and Klebsiella pneumoniae MGH 78578. All vectors were transformed in BL21(DE3) competent cells and expression of the genes encoding the proteins of interest was induced with IPTG (via the T7 promoter). The cells were lysed, proteins were extracted and then purified on Ni-NTA columns. Final protein concentration in the Ni-NTA eluate was diluted to 0.15 mg/mL prior to assays.
[…] consumption and production assays were performed using a THERMOmax microplate reader in the kinetic mode, monitoring the NADPH absorbance peak at 340 nm until the reaction reached equilibrium. […] These reaction conditions are found in Table 4 below.

[4] = In vitro pyruvate formation from alginate or mannuronate; conditions: purified enzyme ~5 ug, over night, pyruvate assay kit, FIG. 6B and 6C

Molecule | mannuronate hydrogenase activity monitored by NADPH consumption [2] | oxidation of 4-octanol measured by NADPH production [3] | other results
B1 | – | – | DEHU hydrogenase activity monitored by NADPH consumption [1]: significant DEHU hydrogenase activity
B2 | significant mannuronate hydrogenase activity | – | –
B3 | significant mannuronate hydrogenase activity | – | –
B4 | – | catalyze the oxidation of 4-octanol in the presence of NADP+ | –
B5 | – | catalyze the oxidation of 4-octanol in the presence of NADP+ | –
B6 | – | – | DEHU hydrogenase activity monitored by NADPH consumption [1]: significant DEHU hydrogenase activity
B7 | – | – | catalysis of DEHU hydrogenase and mannuronate hydrogenase reactions in pyruvate formation from alginate [4]: capable of catalyzing both DEHU hydrogenase and mannuronate hydrogenase reactions
B8 | – | catalyze the oxidation of 4-octanol in the presence of NADP+ | –
B9 | – | – | catalysis of DEHU hydrogenase and mannuronate hydrogenase reactions in pyruvate formation from alginate [4]: capable of catalyzing both DEHU hydrogenase and mannuronate hydrogenase reactions
B10 | significant mannuronate hydrogenase activity | – | –
